# Key:
# Format in all cases: cell-based
# RAW264.7 cells = test: Differentiation of osteoclast progenitor culture mass in biogel (ACP/ALP assay, TRAP staining); conditions: RAW264.7 in biogel, 100 ng/ml Rankl, compared to control group (GM)
# Procedure: 8-2. Culturing of Osteoclasts Osteoclast progenitor cells RAW264.7 were mixed with the biogel prepared in Example 6, in amounts of 5×10^5 cells/ml, 7×10^5 cells/ml, 1×10^6 cells/ml, and 3×10^6 cells/ml, and 100 μL of each of the resulting mixture liquids was gelled using a casting gel, to consequently yield three-dimensional culture mass, each containing 5×10^4 cells, 7×10^4 cells, 1×10^5 cells, 3×10^5 cells, and […]. Then, the three-dimensional culture mass were three-dimensionally cultured for 7 days in osteoclast media, which were formed by adding 100 ng/ml of Rankl to growth media containing α-MEM (Welgene, Korea) supplemented with 10% fetal bovine serum (FBS) (Gibco, USA), 100 U/ml of penicillin (Welgene, Korea), and […] of streptomycin (Welgene, Korea). Then, using ACP assay kit (Abcam, ab83367) and TRAP staining kit (Sigma, 181A), differences in the expression level of osteoclast differentiation factor were examined at different cell numbers. […]
# (§1) Subsequently, on day 3 and day 7 of culturing, the MC3T3-E1 cells were measured for the osteoclast differentiation marker ACP, and the RAW264.7 cells were measured for the osteoblast differentiation marker ALP, to determine the influence of their respective differentiation markers on each other.
# MC3T3-E1 cells = test: Differentiation of osteoblast progenitor culture mass in biogel (ALP/ACP assay, ALP staining); conditions: day 3 and day 7
# Procedure: Osteoblasts progenitor cells, MC3TC-E1 were mixed with the biogel prepared in Example 6, in amounts of […], and 100 μL of each of the resulting mixture solution was gelled using a casting gel, to consequently yield three-dimensional culture mass, each containing 7×10^3 and 1×10^5 cells. Then, the three-dimensional culture mass were three-dimensionally cultured for 7 days in osteoblast media, which were formed by adding 10 mM of β-glycerophosphate (Sigma Aldrich, USA), 50 μg/ml of ascorbic acid (Sigma Aldrich, USA), and 10 nM of dexamethasone (Sigma Aldrich, USA) to growth media supplemented with α-MEM (Welgene, Korea) supplemented with 10% fetal bovine serum (FBS) (Gibco, USA), 100 U/ml of penicillin (Welgene, Korea), and […] of streptomycin (Welgene, Korea). Thereafter, on day 3 and day 7 of culturing, differences in the expression level of ALP protein, which is an early osteoblast differentiation factor, were examined at different cell densities of culture mass, using ALP assay kit (Abcam, ab83369) and ALP staining kit (Sigma, P5869). […]
# as §1
# [1] = tested on: MC3T3-E1 cells and RAW264.7 cells co-culture; test: Differentiation in 3D co-culture mass in biogel (ALP and ACP assay, ALP and TRAP staining)
# Procedure: In detail, after dissolving 0.5% agarose in 300 mM CaCl2 solution, the Phenol Red solution was added in an amount of 5 mg/L to produce a casting gel solution. Then, after introducing 5-5.5 ml of the casting gel solution into a casting tray, a three-dimensional semi-spherical casting mold was inserted in the casting tray, and after completely solidifying the casting gel solution, the casting mold was carefully removed to produce a three-dimensional semi-spherical casting gel mold. The biogel, 1×10^5 cells/ml of osteoblast progenitor cells MC3T3-E1, and 5×10^4 cells/ml of osteoclast progenitor cells RAW264.7, were introduced into the casting gel mold and subjected to gelation to yield a three-dimensional co-culture mass. Then, the co-culture mass was cultured in the following media: media treated only with an osteoblast differentiation induction factor (+3F); media only treated with an osteoclast differentiation induction factor (+R); and media treated with both osteoblast differentiation induction factor and osteoclast differentiation induction factor (+3F+R). Then, osteoblast differentiation profiles were characterized through ALP expression levels.
# 9-2. Creating the bone resorption environment through co-culture of osteoblasts and osteoclasts Under the same conditions as shown in Example 9-1, osteoclast differentiation profiles were characterized by […].
molecule,measurement,setting,value
"Rankl (protein, UniProt O14788 140-317, looked up, 100 ng/ml of Rankl added to growth media) Tumor necrosis factor ligand …: IRAEKAMVDGSWLDLAKRSKLEAQPFAHLTINATDIPSGSHKVSLSSWYHDRGWAKISNMTFSNGKLIVNQDGFYYLYANICFRHHETSGDLATEYLQLMVYVTKTSIKIPSSHTLMKGGSTKYWSGNSEFHFYSINVGGFFKLRSGEEISIEVSNPSLLDPDQDATYFGAFKVRDID",expression of osteoclast differentiation factor ACP,RAW264.7 cells,increased
same,expression of osteoblast differentiation marker ALP,MC3T3-E1 cells,little expression
same,expression of osteoclast differentiation marker ACP,MC3T3-E1 cells,little expression
same,ALP expression (osteoblast differentiation),[1]; combined treatment compared with osteoblast factor only,trace amount
same,ACP expression (osteoclast differentiation),"[1]; day 3 and day 7, combined treatment compared with osteoclast factor only",increased

# — US12252711B2, “Osteoporosis model comprising calcium phosphate hydrogel composition and use thereof” (MEDIFAB CO., LTD., priority 2019, dated 2025)
